US20100022459A1

Target: β-amyloid1-42 (UniProt P05067)
Assay: cell-based or functional assay

amount of globulomers (densitometry of the 6E10 western blot) (% of the control): 45
Substance: D-Trp-Aib (peptide)
